Results from IntAct's records for PubMed 18688256.

Molecular target: T1, il33_human IL33 (UniProt O95760)
T1 sequence: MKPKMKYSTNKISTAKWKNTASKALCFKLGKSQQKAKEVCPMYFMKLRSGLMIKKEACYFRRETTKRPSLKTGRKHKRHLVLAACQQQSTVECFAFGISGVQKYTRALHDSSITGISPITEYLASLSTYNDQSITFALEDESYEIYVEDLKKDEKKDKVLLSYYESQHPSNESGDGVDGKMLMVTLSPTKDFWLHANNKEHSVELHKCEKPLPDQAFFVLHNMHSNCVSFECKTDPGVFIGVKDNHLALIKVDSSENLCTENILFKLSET

| Substance | effect of a mutation on the interaction |
| --- | --- |
| Histone H2A type 1 (Homo sapiens) (from UniProt P0C0S8) E92R | decreasing interaction |
| Histone H2A type 1 (Homo sapiens) (from UniProt P0C0S8) E93L | decreasing interaction |
